Results published in patent US9879306B2, “Luciferase biosensors for cAMP” (PROMEGA CORPORATION, priority 2008, dated 2018).
Positions count from the first letter of the chain named. In names and notes the source's numbering stands.

B1: 7A1-ILQ: 7A1 background with Luc2.0 F369I, F518L, K541Q; SEQ ID NO:68, 69 (protein)
chain: MPGAVGKVVPFIEAKVVDLDTGKTLGVNQRGELCVRGPMIMSGYVNNPEATNALIDKDGWLHSGDIAYWDEDEHFFIVDRLKSLIKYKGYQVAPAELESILLQHPNIFDAGVAGLPDDDAGELPAAVVVLEHGKTMTEKEIVDYVASQVTTAKKLRGGVVLVDEVPKGLTGKLDARKIREILIQAKKGSNWDSGCSREGMYESFIESLPFLKSLEFSARLKVVDVIGTKVYNDGEQIIAQGDSADSFFIIESGEVKITMKRKGKSEVEENGAVEIARCSRGQYFGELALVTNKPRAASAHAIGTVKCLAMDVQAFERLLGPCMEIMKRNIATYEEQLVALFGTNMDIVAKNIKKGPAPFYPLEDGTAGEQLHKAMKRYALVPGTIAFTDAHIEVDITYAEYFEMSVRLAEAMKRYGLNTNHRIVVCSENSLQFFMPVLGALFIGVAVAPANDIYNERELLNSMGISQPTVVFVSKKGLQKILNVQKKLPIIQKIIIMDSKTDYQGFQSMYTFVTSHLPPGFNEYDFVPESFDRDKTIALIMNSSGSTGLPKGVALPHRTACVRFSHARDPIFGNQIIPDTAILSVVPFHHGFGMFTTLGYLICGFRVVLMYRFEEELFLRSLQDYKIQSALLVPTLFSFFAKSTLIDKYDLSNLHEIASGGAPLSKEVGEAVAKRFHLPGIRQGYGLTETTSAILITPEGV
B2: 7A1-ILY: 7A1 background with Luc2.0 F369I, F518L and RIIβB F407Y; SEQ ID NO:27, 28 (protein)
chain: B1 chain with Q184K, F210I, F248Y, F341Y, F359L
B3: L9-Y: L9 background with RIIβB F407Y; SEQ ID NO:98, 99 (protein)
chain: MPGAVGKVVPFFEAKVVDLDTGKTLGVNQRGELCVRGPMIMSGYVNNPEATNALIDKDGWLHSGDIAYWDEDEHFFIVDRLKSLIKYKGYQVAPAELESILLQHPNIFDAGVAGLPDDDAGELPAAVVVLEHGKTMTEKEIVDYVASQVTTAKKLRGGVVFVDEVPKGLTGKLDARKIREILIKAKKGSIAGCGDAGEGMYESFIESLPFLKSLEFSARLKVVDVIGTKVYNDGEQIIAQGDSADSFFIIESGEVKITMKRKGKSEVEENGAVEIARCSRGQYFGELALVTNKPRAASAHAIGTVKCLAMDVQAFERLLGPCMEIMKRNIATYEEQLVALYGTNMDIVAKNIKKGPAPFYPLEDGTAGEQLHKAMKRYALVPGTIAFTDAHIEVDITYAEYFEMSVRLAEAMKRYGLNTNHRIVVCSENSLQFFMPVLGALFIGVAVAPANDIYNERELLNSMGISQPTVVFVSKKGLQKILNVQKKLPIIQKIIIMDSKTDYQGFQSMYTFVTSHLPPGFNEYDFVPESFDRDKTIALIMNSSGSTGLPKGVALPHRTACVRFSHARDPIFGNQIIPDTAILSVVPFHHGFGMFTTLGYLICGFRVVLMYRFEEELFLRSLQDYKIQSALLVPTLFSFFAKSTLIDKYDLSNLHEIASGGAPLSKEVGEAVAKRFHLPGIRQGYGLTETTSAILITPEGV
B4: 7A1-LQY: 7A1 background with Luc2.0 F518L, K541Q and RIIβB F407Y; SEQ ID NO:58, 59 (protein)
chain: B1 chain with I12F, F341Y
B5: L9-LQ: L9 background with Luc2.0 F518L, K541Q; SEQ ID NO:102, 103 (protein)
chain: B3 chain with F161L, K184Q, Y341F
B6: 7A1-I: 7A1 background with Luc2.0 F369I; SEQ ID NO:66, 67 (protein)
chain: B1 chain with L161F, Q184K
B7: L9-LY: L9 background with Luc2.0 F518L and RIIβB F407Y; SEQ ID NO:100, 101 (protein)
chain: B3 chain with F161L
B8: 7A1-LY: 7A1 background with Luc2.0 F518L and RIIβB F407Y; SEQ ID NO:25, 26 (protein)
chain: B1 chain with I12F, Q184K, F341Y
B9: L9-QY: L9 background with Luc2.0 K541Q and RIIβB F407Y; SEQ ID NO:90, 91 (protein)
chain: B3 chain with K184Q
B10: L9-IY: L9 background with Luc2.0 F369I and RIIβB F407Y; SEQ ID NO:76, 77 (protein)
chain: B3 chain with F12I
B11: 7A1-ILQY: 7A1 background with Luc2.0 F369I, F518L, K541Q and RIIβB F407Y; SEQ ID NO:31, 32 (protein)
chain: B1 chain with F341Y
B12: 7A1-IQY: 7A1 background with Luc2.0 F369I, K541Q and RIIβB F407Y; SEQ ID NO:29, 30 (protein)
chain: B1 chain with L161F, F341Y
B13: 7A1-Q: 7A1 background with Luc2.0 K541Q; SEQ ID NO:62, 63 (protein)
chain: B1 chain with I12F, L161F
B14: L9-LQY: L9 background with Luc2.0 F518L, K541Q and RIIβB F407Y; SEQ ID NO:88, 89 (protein)
chain: B3 chain with F161L, K184Q
B15: 7A1-LQ: 7A1 background with Luc2.0 F518L, K541Q; SEQ ID NO:64, 65 (protein)
chain: B1 chain with I12F
B16: 7A1-QY: 7A1 background with Luc2.0 K541Q and RIIβB F407Y; SEQ ID NO:109, 110 (protein)
chain: B1 chain with I12F, L161F, F341Y
B17: 7A1-IL: 7A1 background with Luc2.0 F369I, F518L; SEQ ID NO:70, 71 (protein)
chain: B1 chain with Q184K
B18: L9-IQY: L9 background with Luc2.0 F369I, K541Q and RIIβB F407Y; SEQ ID NO:78, 79 (protein)
chain: B3 chain with F12I, K184Q
B19: 7A1-IQ: 7A1 background with Luc2.0 F369I, K541Q; SEQ ID NO:23, 24 (protein)
chain: B1 chain with L161F
B20: 7A1-IY: 7A1 background with Luc2.0 F369I and RIIβB F407Y; SEQ ID NO:39, 40 (protein)
chain: B1 chain with L161F, Q184K, F341Y

Key:
GPR41 [1] = molecular target: T1, GPR41 (Homo sapiens, UniProt O14843); assay: Sodium proprionate CRC with biosensor variants in HEK293 cells stably expressing GPR41; type: cell-based; settings: for Fold Response Na proprionate + FSK(1 μM): with FSK 1 μM; for Fold Response Na proprionate: without FSK, ratio of induced to uninduced signal
T1 sequence (O14843 1-346): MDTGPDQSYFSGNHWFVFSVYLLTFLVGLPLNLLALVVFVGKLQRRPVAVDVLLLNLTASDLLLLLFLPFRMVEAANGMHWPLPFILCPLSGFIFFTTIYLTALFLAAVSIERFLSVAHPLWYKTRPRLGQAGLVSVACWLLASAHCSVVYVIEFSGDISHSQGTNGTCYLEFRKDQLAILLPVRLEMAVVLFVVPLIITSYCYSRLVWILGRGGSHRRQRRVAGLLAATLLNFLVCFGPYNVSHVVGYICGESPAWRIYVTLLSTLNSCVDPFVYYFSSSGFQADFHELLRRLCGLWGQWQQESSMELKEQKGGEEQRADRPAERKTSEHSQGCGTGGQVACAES
Protocol: (§1) After 24 hours, the cells were transiently transfected with one of the cAMP biosensor variants (Tables 7A and 7B). After another 24 hours, the cells were equilibrated for 2 hours at room temperature using 5 mM EF-luc in CO2 independent media with 10% FBS. Prior to the addition of the compounds, luminescence was measured. The compounds (12× stock in CO2 independent media without FBS) were then added to the cells. For GPR41 expressing cells, sodium proprionate CRC was added. […] The cells were allowed to incubate another 30 minutes and luminescence read on a Varioskan Flash. EC50 values and fold responses were calculated for each of the clones with each of the compounds with or without FSK. In addition, variants […]7 (Example VIIB), 16A2 (Example VIIB) and GS358 were also screened.

GPR41 [2] = assay: as above; type: cell-based; settings: ratio of RLU of FSK treated well to untreated well
Protocol: as §1

Row | Molecule | Fold Response Na proprionate + FSK(1 μM) (GPR41 [1]) [fold] | Fold Response Na proprionate (GPR41 [1]) [fold] | Fold Signal Change (GPR41 [2]) [fold]
1 | B1 | 5.68 | 4.09 | 181.8
2 | B2 | 8.96 | 2.49 | 194.6
3 | B3 | 3.88 | 2.17 | 55.8
4 | B4 |  | 1.94 | 153.1
5 | B5 | 7.20 | 2.83 | 98.6
6 | B6 | 6.60 | 3.07 | 133.9
7 | B7 | 5.57 | 2.07 | 126.7
8 | B8 | 62.19 | 2.15 | 141.7
9 | B9 | 10.02 | 2.01 | 61.3
10 | B10 |  | 2.53 | 86.4
11 | B11 | 8.13 | 2.57 | 220.1
12 | B12 |  | 2.42 | 128.0
13 | B13 | 4.26 | 2.26 | 71.6
14 | B14 | 13.78 | 1.95 | 136.0
15 | B15 | 6.6 | 2.70 | 85.2
16 | B16 | 161.29 | 1.68 | 87.6
17 | B17 | 4.36 | 4.66 | 200.0
18 | B18 |  | 3.82 | 96.0
19 | B19 | 3.42 | 3.66 | 128.0
20 | B20 | 8.66 | 2.81 | 165.7
